Assay results reported in US20140161803A1 (IFOM Fondazione Istituo FIRC di Oncologia Molecolare, priority 2011, published 2014).
Marks after values point to notes of the source that are not given here.

Target: T1, human uPAR (Homo sapiens, UniProt Q03405)
T1 construct: the mature protein (Leu^1-Gly^283) in bold; expressed in transfected cells; host or cells: HEK293 Flp-In T-REx (293)
Experiment: Real-time cell analyzer (xCELLigence) adhesion of 293/uPAR cells to VN
Type: cell-based
Settings: cell index one hour after addition, highest antibody concentration 300 nM
Protocol: The electric impedance (termed cell index, CI) was recorded at regular intervals. […] The curves show the normalized cell index (NCI, Y-axis) as a function of time (X-axis). All cell indexes were normalized to the cell index measured immediately prior to antibody addition. To determine IC50 values (panel D), the NCI measured one hour after antibody addition were calculated in % of the NCI for untreated cells at the same time point (ΔNCI, Y-axis) and graphed in function of antibody concentration (X-axis).
96-well E-Plates were coated with VN (5 μg/ml) or FN (10 μg/ml) over night at 4° C. Plates were washed with PBS, added 0.1 ml serum free medium (DMEM, 0.1% bovine serum albumin, 25 mM Hepes pH 7.0) and transferred to real-time cell analyzer instrument (xCELLigence SP, Roche Corp.). […] The plate was returned to the instrument and the cell index recorded every three minutes. […] After another 1-1.5 hours of measurements the plate was removed again and wells added (20 μl) of antibody diluted to yield the indicated final concentrations. The plate was returned to the instrument and measurements conducted every 3 minutes for 2 hours and then every 15 minutes for 18 hours.

T1 sequence (Q03405 23-305): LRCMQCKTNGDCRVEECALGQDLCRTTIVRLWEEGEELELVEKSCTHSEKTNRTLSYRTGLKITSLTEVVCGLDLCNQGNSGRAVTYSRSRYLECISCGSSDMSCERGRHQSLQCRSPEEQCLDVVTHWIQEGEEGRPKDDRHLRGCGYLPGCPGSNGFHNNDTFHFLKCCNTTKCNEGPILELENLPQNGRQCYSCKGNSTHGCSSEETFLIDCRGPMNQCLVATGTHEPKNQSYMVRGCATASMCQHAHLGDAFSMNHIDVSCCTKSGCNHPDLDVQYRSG

% max inhibition (pro-uPA pre-treat.) (pro-uPA pre-treated 293/uPAR cells on VN): 100* %
% max inhibition (veh. pre-treat.) (vehicle pre-treated 293/uPAR cells on VN): 100* %
Substance: SMB: uPAR-binding N-terminal domain of VN, natural competitive antagonist of the uPAR/VN-interaction (DQESCKGRCTEGFNVDKKCQCDELCSYYQSCCTDYTAECKPQVT) [reference compound]
